Results: the nanobody polyreactivity screen of Harvey et al. (2022)

Experiment: yeast display, Sf9 membrane polyspecificity reagent, FACS + sequencing; frameworks hold sequencing errors
In short: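 In a synthetic yeast display library (Saccharomyces cerevisiae BJ5465), nanobody expression was induced with galactose for 36–48 hours. FACS gates were set low and high (top ~1%) using anti-HA fluorescence for expression and streptavidin fluorescence for binding of the Sf9 membrane reagent. Each polyreactivity label is drawn from the gate of origin.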

| Sequence | polyreactivity (PSR sort gate) |
| --- | --- |
| QVQLVESGGGLVQAGGSLRLSCAASGRIFYGNVIGWYRQAPGKERELVADIYYDGGSTYYADSVKGRFTISRDNAKNTVYLQMNSLKPEDTAVYYCNKREVFIYGTTYDYWGQGTQVTVSS | low polyreactivity |
| QVQLVESGGGLVQAGGSLRLSCAASGITFYGYAMGWYRQAPGKERELVAAISESGGSTYYADSVKGRFTISRDNAKNSVYLQMNRLKEEDTAVYYCASQGYSVYWYSNYWGQCTQVTVSS | low polyreactivity |
| QVQLHESGGGLVQAGGSLRLSCAASGTITDSGLMGWYRQAPGKERELVAGISSGGITNYADSVKGRFTISRDNAKNTVYLQMNSLKPEDTAVYWGQGTQVTVSS | low polyreactivity |
| QVQLVESGGGLVQAGGSLRLSCAASGLTFVRYTMGWYRQPPGKVRELVAAITRGDGTNYADSVKGRFTISRDNAKNTVYLHLNCMKPEDTAVYLCADQEHFLWNYYAFDYWGQGTQVTVSS | low polyreactivity |
| QVQLLESGGVLVQAGGSLLLSCAASGSIFSPYAMGRYRQAPGKERELVATISTIDGSTTYADSVKGRFTISRDYAKNTVYLQMKSLKPEDTAVYYCNAEYAYFKLWANPYDMDYWGQGTQVTVSS | low polyreactivity |
| QVQLVESGGGLVQAGGSLRLSCAASGRIILGYAMGWYRQAPGKERELVARITWSGGSTYYADSVKGRFTISRDNAKNTVSLQMNSLKPEDNAVYYCAKRTYYSYPDGYWGQGTQVTVSS | high polyreactivity |
| QVQLVESGGGLVQAGGSLRLSCAASGFIFSRYAMGWYRQAPGKERELGATINTNGGSTYYAYSVKGRFTISRDNAKNTVYLQMNSLKPEDTAVYYCNAKYQALQRSWGRYDYWGQGTQVTVSS | low polyreactivity |
| QVQLVESGAGLVQAGGSLRLCCAASGSTFTKNAMGLYRQAPGKERELVAAISWRDGSTYYADSVKGRFTISRDNAKNTVYLQMNSLKPEDTAVYYCNAVRRSFGKYPGLLDYDYWGQGTQVTVSS | high polyreactivity |
| QVQLVESGGGLFQAGGSLRLSSAASGIIFGYYSLGWYRQAPGKERELVAAINQDGSSTYYADSVKGRFTISRDNAKNTVYLQMNSLNPEDTAVYYCNARGVPRQDDRMGYWGQGTQVTVSS | low polyreactivity |
| QVQLVDSGGGLVQAGGRLRLSCAASGNNFVEYAMGWYRPAPGKERELVAAITNSGGRTHYADSVKRRFTISRDNAKNTVYLQMNSLKPEDTGVYYCAAPTKYRSRRYYWGQGTLVTVSS | high polyreactivity |
| QVQLVESGGGLVQAGGSLRLSCAASGITIYVYAMGWYRQAPGTERELVAAITRSGGITSYADSVKGRFTISRDNAKNTVYLQMNSLKPEDTAVYYVAAESTNLHYHIQGVGYWGQGTQVTVSS | low polyreactivity |
| QVQVVESGGGLVQAGGSLRLSCAASGSIFFFYAMGWYRQAPGQERELVAAITGSGGSTYYADSVKGRFTISRDKAKNTVYLQMNSLKPEDPAVYYCAVRTSRQVYSYGGYESWGHGTQVTVSS | low polyreactivity |
| QVQLVESGGGLVQAGGSLRLSCAASGSTFRDNTMGWYRQAPGKERELVAAITKSGGSTYYADSVKGRFTISRDTAKNTVYLQMNSLKPEDTAVYYCAAGARPRDKPVYFLYRYDYWGQGTQGTVSS | low polyreactivity |
| QVQLVESGGGLVQAGGSLRLSCAASGRIFAVYAMGWYRQAPGKERELVAAISWSGGRTNYADSVKGRFTISRDNAKKTVYLQMNSLKPEDTAVYYCNARQWRFGFVASGGKYNYWGQGTQVTVSA | high polyreactivity |
| QVQLVESGGGLVQAGGSLRLTCAASGRTFAWYAMGWYRQAPGKERDLVAAISSAGSTYYADSVKGRFTISRDNAKNTVYLQMNSLKPEDTAVYYCAASFGRYTSGTYYYWGQGTQVTVSS | high polyreactivity |
| QVQLVESGGGLVQAGGSLRLSCAASGFTFRGYVMGWYRQAPGKERELVAAITNIGTSTYYADSVKGRFTISRDNAKNTVYLQMNSLNPEDTAVYYCAARLRSIFYDWGLGTQVTVSS | low polyreactivity |

| Sequence | polyreactivity (PSR sort gate) |
| --- | --- |
| QVQLVESGGGLVQAGGSLRLSCAASGRTFLYYTMGWYRQAPGKERELVAAINWSGGRTYYADSVKGRFTISRDNAKNTVYLQMNSLKPEDTAVYYCNADSRYRYDYWGQGTQVTVSS | low polyreactivity |
| QLQLLESDGGLVQAGVSLRLSCATSAMTISRYTMGWYRQAPGKARELVAVITYRGGSTYYADSVKGRFTISRDNAKNTVYLQMNSLKPEDTAVYYCAAGRRTYGLTYDYWGQGTQVTVSS | high polyreactivity |
| QFQLVESGGGLVQAGGSLRLSCAASGRIFEDSMGWYRQAPGKERELVAAIRWSGGGTYYADSVKGRFTISRDNAKNTVYLQMNSLKPEDTAVYYCATPGTGSVELYGYWGQGTQVTVSS | low polyreactivity |
| QVQLVESGGGLVQAGGSLRLSCAASGSIFSLNAMGWYRQAPGKERELVAASGGGSTYYADSVKGRFTISRDNAKNTVYLQMNSLKPEDSAVYYCAARVLTDELDYWGQGTQVTVSS | low polyreactivity |
| QVQLVESGVGLVQAGGSLRLTCAASGSIFSVYAMGWYRPAPGKESELVAAITSSGGLTYYADSVKGRITISRDYAKNSVYLQMTSLIPEDTAVYYCATRGIPDDIARDYWGLGTQVTVSS | low polyreactivity |
| QVQLVESGGGLVQAGGSLRLSCAASGRTFGTYAMGWYRQEPGKERELFATISSGGSTYYADSVKGRFTISRDNAKNTVYLLMNSLKPEDTAVYYCAAYRYFRPGDYWGQGTQVNVSS | low polyreactivity |
| QVQRVESGGGLVPAGGSLRLSCAASGSIFYYNAMGWYRQAPGKERELVAAISWGDGITYYADSVKGRFTISRDNAKKTVYVQMNSLKPEDTAVYYCAVDYYYLPYEYWGQGTQVTVSS | high polyreactivity |
| QVQLVESGGGLVQAGGSLRLSCAASGITFWVYAMGWYRQSPGKESELVATISRSGGRTYYADSVKGRFTISRDNAKTTVYLQMNSLKPEDTAVYYCAARYRNVLGYDYDFWGQGTQVTVSS | high polyreactivity |
| QVQLVESGGGLVQAGGSLRLSCAASGSIFTHNAMGSYRQAPGKERELVAAISSGGSTNYADSVKGRFTISRDNAMNTVYLQMNSLKPDDTAVYYCAISIDGWYWRRRRYDYWGQGTQVTVSS | low polyreactivity |
| QVQLVESGGGLVQAGGSLRLSCAASGIIFDFYAMGWYRPAPGKERELVAAITSSGGSTYYADSVKGRFTISRDNAKNTVYLQMNSLKPEDTAVYYCAAEYTIYGTDQRYNYWGQGTQVTVSS | low polyreactivity |
| QVQHVESGGGLVQAGGSLRLSCAASGRTFISNAMGWYRQAPGKERELVATINSGGSTNYADSVKGRFTISRDNAKNTVYLQMNSLKPEDTAVYYCARRVRYKHYDYWGQGTQLTVSS | high polyreactivity |
| HVQRVESGGGLVQAGGSLRLSCAASGLIFVRYAMGWYRQAPGKERELVAAITTGGRTYYADSVKGRFTISRDNAKNTVYLQMNSLKPEDTAVYDCAASRSTYRASRPGTTFNYWGQGTQVTVSS | high polyreactivity |
| QVQIVESGGGLVQAGGSLRLSCAPSGSNIDYNDMGRYRQAPGKEWELVAAISGRGTRTYYADSVKGRFTISRDNAKNTVYLQMNSLKPEDTAVYYCAASTRGRYWGRFGYWGQRTQVTVSS | high polyreactivity |
| QVQLVESGGGLVQAGGSLRLSCAASGRTLGRYAMGWYRHAPGKERELVADISFRGGSTYYADSVKGRFTISRDNAKNTVYLQMNSLKPVDTAVYYCAAVPGPASKYGYWGQGTQVTVSS | high polyreactivity |
| QVHLVESGGGLVQAGGSLRLSCAASGSTLVIYAMGWYRQAPGKERELVAVITWSGGSTYYADSVKGRFTISRDNAKNTVYLQMNSLKPEDTAVYYCAKRPIVRQRSYYYWGQGTQVTVSS | low polyreactivity |
| QVQLVESGGGLVQAGGSLRLSCAASGFIFGYNAMGWYRQAPGKERELVAAITWIGGTTYYADSVKGRFTISRDNAKNTVYLQMNSLKPEDTAVYYCARQRSYGRSSYSYGYDYWVQGTQVTVSS | high polyreactivity |
